Measured values published in the Human Domainome abundance scans (Beltran et al. 2025).
± gives the uncertainty stated by the source.

B1: Nuclear receptor subfamily 1 group D member 2, residues 103 to 171; numbered along this chain, Q14995 (parent)
chain: CKVCGDVASGFHYGVHACEGCKGFFRRSIQQNIQYKKCLKNENCSIMRMNRNRCQQCRFKKCLSVGMSR

Variants of: B1
Test: abundance fitness (aPCA) (normalised: wild type 0, dead -1); higher = more abundant; growth selection in yeast, the domain comes from the species named
Conditions: Homo sapiens

Variant	abundance fitness
CKVCGDVASGFHYGVHACEGCKGFFRRSIQQNIQYKKCLKNENCSIMRMNRNRCQQCAFKKCLSVGMSR [R58A]	-0.272 ± 0.12
CKVCGDVASGFHYGVHACEGCKGFFRRSIQQNIQYKKCLKNENCSIMRMNRNRCQQCYFKKCLSVGMSR [R58Y]	-0.055 ± 0.18
CKVCGDVASGFHYGVHACEGCKGFFRRSIQQNIQYKKCLKNENCSIMRMNRNRCQQCVFKKCLSVGMSR [R58V]	-0.903 ± 0.27
CKVCGDVASGFHYGVHACEGCKGFFRRSIQQNIQYKKCLKNENCSIMRMNRNRCQQCLFKKCLSVGMSR [R58L]	0.278 ± 0.06
CKVCGDVASGFHYGVHACEGCKGFFRRSIQQNIQYKKCLKNENCSIMRMNRNRCQQCFFKKCLSVGMSR [R58F]	0.109 ± 0.2
CKVCGDVASGFHYGVHACEGCKGFFRRSIQQNIQYKKCLKNENCSIMRMNRNRCQQCHFKKCLSVGMSR [R58H]	0.466 ± 0.11
CKVCGDVASGFHYGVHACEGCKGFFRRSIQQNIQYKKCLKNENCSIMRMNRNRCQQCEFKKCLSVGMSR [R58E]	-0.474 ± 0.33
CKVCGDVASGFHYGVHACEGCKGFFRRSIQQNIQYKKCLKNENCSIMRMNRNRCQQCQFKKCLSVGMSR [R58Q]	-0.046 ± 0.11
CKVCGDVASGFHYGVHACEGCKGFFRRSIQQNIQYKKCLKNENCSIMRMNRNRCQQCNFKKCLSVGMSR [R58N]	-0.759 ± 0.17
CKVCGDVASGFHYGVHACEGCKGFFRRSIQQNIQYKKCLKNENCSIMRMNRNRCQQCWFKKCLSVGMSR [R58W]	0.565 ± 0.11
CKVCGDVASGFHYGVHACEGCKGFFRRSIQQNIQYKKCLKNENCSIMRMNRNRCQQCIFKKCLSVGMSR [R58I]	-0.806 ± 0.49
CKVCGDVASGFHYGVHACEGCKGFFRRSIQQNIQYKKCLKNENCSIMRMNRNRCQQCCFKKCLSVGMSR [R58C]	0.417 ± 0.39
CKVCGDVASGFHYGVHACEGCKGFFRRSIQQNIQYKKCLKNENCSIMRMNRNRCQQCPFKKCLSVGMSR [R58P]	-0.698 ± 0.18
CKVCGDVASGFHYGVHACEGCKGFFRRSIQQNIQYKKCLKNENCSIMRMNRNRCQQCMFKKCLSVGMSR [R58M]	0.036 ± 0.09
CKVCGDVASGFHYGVHACEGCKGFFRRSIQQNIQYKKCLKNENCSIMRMNRNRCQQCRFKACLSVGMSR [K61A]	-0.328 ± 0.15
CKVCGDVASGFHYGVHACEGCKGFFRRSIQQNIQYKKCLKNENCSIMRMNRNRCQQCRFKHCLSVGMSR [K61H]	-0.681 ± 0.29
CKVCGDVASGFHYGVHACEGCKGFFRRSIQQNIQYKKCLKNENCSIMRMNRNRCQQCRFKPCLSVGMSR [K61P]	-0.905 ± 0.34
CKVCGDVASGFHYGVHACEGCKGFFRRSIQQNIQYKKCLKNENCSIMRMNRNRCQQCRFKCCLSVGMSR [K61C]	-0.717 ± 0.38
CKVCGDVASGFHYGVHACEGCKGFFRRSIQQNIQYKKCLKNENCSIMRMNRNRCQQCRFKQCLSVGMSR [K61Q]	-0.647 ± 0.22
CKVCGDVASGFHYGVHACEGCKGFFRRSIQQNIQYKKCLKNENCSIMRMNRNRCQQCRFKECLSVGMSR [K61E]	-0.414 ± 0.16

Variant	abundance fitness
CKVCGDVASGFHYGVHACEGCKGFFRRSIQQNIQYKKCLKNENCSIMRMNRNRCQQCRFKVCLSVGMSR [K61V]	-0.886 ± 0.3
CKVCGDVASGFHYGVHACEGCKGFFRRSIQQNIQYKKCLKNENCSIMRMNRNRCQQCRFKGCLSVGMSR [K61G]	-0.385 ± 0.12
CKVCGDVASGFHYGVHACEGCKGFFRRSIQQNIQYKKCLKNENCSIMRMNRNRCQQCRFKMCLSVGMSR [K61M]	-0.776 ± 0.34
CKVCGDVASGFHYGVHACEGCKGFFRRSIQQNIQYKKCLKNENCSIMRMNRNRCQQCRFKSCLSVGMSR [K61S]	-0.769 ± 0.19
CKVCGDVASGFHYGVHACEGCKGFFRRSIQQNIQYKKCLKNENCSIMRMNRNRCQQCRFKFCLSVGMSR [K61F]	-0.608 ± 0.35
CKVCGDVASGFHYGVHACEGCKGFFRRSIQQNIQYKKCLKNENCSIMRMNRNRCQQCRFKLCLSVGMSR [K61L]	-0.422 ± 0.12
CKVCGDVASGFHYGVHACEGCKGFFRRSIQQNIQYKKCLKNENCSIMRMNRNRCQQCRFKTCLSVGMSR [K61T]	-0.652 ± 0.22
CKVCGDVASGFHYGVHACEGCKGFFRRSIQQNIQYKKCLKNENCSIMRMNRNRCQQSRFKKCLSVGMSR [C57S]	-0.836 ± 0.3
CKVCGDVASGFHYGVHACEGCKGFFRRSIQQNIQYKKCLKNENCSIMRMNRNRCQQDRFKKCLSVGMSR [C57D]	-0.689 ± 0.47
CKVCGDVASGFHYGVHACEGCKGFFRRSIQQNIQYKKCLKNENCSIMRMNRNRCQQMRFKKCLSVGMSR [C57M]	-1 ± 0.46
CKVCGDVASGFHYGVHACEGCKGFFRRSIQQNIQYKKCLKNENCSIMRMNRNRCQQKRFKKCLSVGMSR [C57K]	-0.687 ± 0.46
CKVCGDVASGFHYGVHACEGCKGFFRRSIQQNIQYKKCLKNENCSIMRMNRNRCQQGRFKKCLSVGMSR [C57G]	-0.855 ± 0.23
CKVCGDVASGFHYGVHACEGCKGFFRRSIQQNIQYKKCLKNENCSIMRMNRNRCQQFRFKKCLSVGMSR [C57F]	-0.806 ± 0.27
CKVCGDVASGFHYGVHACEGCKGFFRRSIQQNIQYKKCLKNENCSIMRMNRNRCQQLRFKKCLSVGMSR [C57L]	-0.708 ± 0.16
CKVCGDVASGFHYGVHACEGCKGFFRRSIQQNIQYKKCLKNENCSIMRMNRNRCQQRRFKKCLSVGMSR [C57R]	-1.21 ± 0.32
CKVCGDVASGFHYGVHACEGCKGFFRRSIQQNIQYKKCLKNENCSIMRMNRNRCQQIRFKKCLSVGMSR [C57I]	-0.44 ± 0.2
CKVCGDVASGFHYGVHACEGCKGFFRRSIQQNIQYKKCLKNENCSIMRMNRNRCQQQRFKKCLSVGMSR [C57Q]	-0.59 ± 0.33
CKVCGDVASGFHYGVHACEGCKGFFRRSIQQNIQYKKCLKNENCSIMRMNRNRCQQVRFKKCLSVGMSR [C57V]	-1.01 ± 0.37
CKVCGDVASGFHYGVHACEGCKGFFRRSIQQNIQYKKCLKNENCSIMRMNRNRCQQARFKKCLSVGMSR [C57A]	-0.738 ± 0.18
